Laboratory results published in patent publication CN113683688A.

Biological target: HIV-1 P24重组蛋白 (原核细胞大肠杆菌表达的HIV-1 P24全长蛋白) (HIV-1) (UniProt P04591)
Assay: indirect ELISA, serial two-fold dilution of the antibody

B1: 抗HIV-1 P24兔单克隆抗体OTIR5D12 (antibody, V domains shown)
VH: QSLEESGGRLVTPGTPLTLTCTASGFSLNSYYMTWVRQAPGKGLEWIGILDTSGSTDYASWAKGRFTISKTSTTVDLKVTSPTAADTATYFCARGAYYSAYGDAWGQGTLVTVSS
VL: AQVLTQTPSPVSAVLGGTVTINCQSSQSVYNSNWLSWFQQKPGQPPKLLIYKASNLASGVPSRFKGSGSGTQFTLTISSVQCDDAATYYCQGGYNNGDGFGGGTEVVVK
效价 (antibody titer): 6.6e+06
